This note sets out measurements from patent publication US20180263259A1.

This assay concerns the target ground chicken feathers (keratin).

Take FoodPro® PXT (enzyme): the Soluble dry matter yield (%) was found to be 48.3%.
